Key:
[1] = target: Peptide 3 (NpuDnaEC16 capture peptide with ANP photocleavable residue); assay: pull-down; peptide 3 immobilised by its His6 on HisPur Ni-NTA magnetic beads; hCNTF-NpuDnaE(ΔC16) in BYL or HeLa CFPS matrix, overnight, room temperature; captured share from Western blots of the matrix before and after capture; the capture is followed by protein trans splicing, which ligates hCNTF covalently to the peptide's C-terminal stretch
[2] = target: the molecule itself; assay: SDS-PAGE without β-mercaptoethanol in the loading buffer, Western blot; purified hCNTF standard; anti-hCNTF polyclonal antibody for detection

**Q.** “hCNTF-NpuDnaE(ΔC16) synthesised in the HeLa cell free system (from UniProt P26441 1-200)” was tested. Which amount of hCNTF bound to the beads [1] did it give?
**A.** Its amount of hCNTF bound to the beads is 1.14 μg/mg beads.

**Q.** “hCNTF-NpuDnaE(ΔC16) synthesised in the tobacco BY-2 lysate (BYL) cell free system (from UniProt P26441 1-200)” was tested. Which amount of hCNTF bound to the beads [1] did it give?
**A.** Its amount of hCNTF bound to the beads is 0.42 μg/mg beads.

B1: His6-hCNTF (purified human ciliary neurotrophic factor used as standard) (natural protein, UniProt P26441 1-200, looked up)
chain: MAFTEHSPLTPHRRDLCSRSIWLARKIRSDLTALTESYVKHQGLNKNINLDSADGMPVASTDQWSELTEAERLQENLQAYRTFHVLLARLLEDQQVHFTPTEGDFHQAIHTLLLQVAAFAYQIEELMILLEYKIPRNEADGMPINVGDGGLFEKKLWGLKVLQELSQWTVRSIHDLRFISSHQTGIPARGSHYIANNKKM
notes: human ciliary neurotrophic factor, codon optimised gene, plasmid pOPINF-CNTF (Itkonen et al. 2014); also called purified hCNTF; purified His6-hCNTF; source: E. coli Rosetta 2 (DE3) pLysS, purified (Ni-IDA resin, size exclusion chromatography)
**Q.** Does B1 bind [2]?
**A.** Result: binds

Reference: article PMC6086869, “Accelerated pharmaceutical protein development with integrated cell free expression, purification, and bioconjugation” (Scientific Reports, 2018)
